Results: the MegaScale stability set (Tsuboyama et al. 2023)

B1: HEEH_KT_rd6_3632 (parent)
chain: DAEELIELVERALKEGREIILLGVRITSEEAGKWFIEWIRRFL
B2: 6NMW (parent)
chain: QGDIVVALYPYDGIHPDDLSFKKGEKMKVLEEHGEWWKAKSLLTKKEGFIPSNYVAKLN

Variants of: B1
Experiment: folding stability dG (cDNA display proteolysis); higher = more stable
Conditions: PBS, room temperature

Compared with DAEELIELVERALKEGREIILLGVRITSEEAGKWFIEWIRRSL, DAEELIELVERALKEGREIILLGVRITSEEAGKWFIEWIRRTL is higher in “folding stability dG” value: 3.15 kcal/mol for the first, 3.35 kcal/mol for the second.

First: DAEELIELVERALKEGREIILLGVRITSEEAGKWFIEWIRRRL
Second: DAEELIELVERALKEGREIILLGVRITSEEAGKWFIEWIRRWL
The “folding stability dG” value of the first is lower: 3.29 kcal/mol for the first, 4.07 kcal/mol for the second.

Compared with DAEELIELVERALKEGREIILLGVRITSEEAGKWFIEWIRRVL, DAEELIELVERALKEGREIILLGVRITSEEAGKWFIEWIRRYL is higher in “folding stability dG” value: 3.58 kcal/mol for the first, 3.72 kcal/mol for the second.

Compared with DAEELIELVERALKEGREIILLGVRITSEEAGKWFIEWIRRFP, DAEELIELVERALKEGREIILLGVRITSEEAGKWFIEWIRRFY is higher in “folding stability dG” value: 2.62 kcal/mol for the first, 3.81 kcal/mol for the second.

Going from DAEELIELVERALKEGREIILLGVRITSEEAGKWFIEWIRRFQ to DAEELIELVERALKEGREIILLGVRITSEEAGKWFIEWIRRFM, the “folding stability dG” value rises from 3.22 kcal/mol to 3.81 kcal/mol.

Compared with DAEELIELVERALKEGREIILLGVRITSEEAGKWFIEWIRRFD, DAEELIELVERALKEGREIILLGVRITSEEAGKWFIEWIRRFA is higher in “folding stability dG” value: 2.75 kcal/mol for the first, 3.35 kcal/mol for the second.

Compared with DAEELIELVERALKEGREIILLGVRITSEEAGKWFIEWIRRFT, DAEELIELVERALKEGREIILLGVRITSEEAGKWFIEWIRRFK is lower in “folding stability dG” value: 3.24 kcal/mol for the first, 3.09 kcal/mol for the second.

Going from DAEELIELVERALKEGREIILLGVRITSEEAGKWFIEWIRRFH to DAEELIELVERALKEGREIILLGVRITSEEAGKWFIEWIRRFR, the “folding stability dG” value falls from 3.17 kcal/mol to 3.03 kcal/mol.

First: DAEELIELVERALKEGREIILLGVRITSEEAGKWFIEWIRRFS
Second: DAEELIELVERALKEGREIILLGVRITSEEAGKWFIEWIRRFG
The “folding stability dG” value of the first is higher: 3.17 kcal/mol for the first, 3.03 kcal/mol for the second.

Going from DAEELIELVERALKEGREIILLGVRITSEEAGKWFIEWIRRFF to DAEELIELVERALKEGREIILLGVRITSEEAGKWFIEWIRRFN, the “folding stability dG” value falls from 4.01 kcal/mol to 2.97 kcal/mol.

Compared with DAEELIELVERALKEGREIILLGVRITSEEAGKWFIEWIRRFW, DAEELIELVERALKEGREIILLGVRITSEEAGKWFIEWIRRFV is lower in “folding stability dG” value: 3.89 kcal/mol for the first, 3.48 kcal/mol for the second.

Compared with DAEELIELVERALKEGREIILLGVRITSEEAGKWFIEWIRRFI, DAEELIELVERALKEGREIILLGVRITSEEAGKWFIEWIRRFE is lower in “folding stability dG” value: 3.61 kcal/mol for the first, 2.91 kcal/mol for the second.

Variants of: B2
Experiment: as above
Conditions: PBS, room temperature

Going from K57A to K57N, the “folding stability dG” value falls from 3.02 kcal/mol to 2.44 kcal/mol.

First: K57E
Second: K57H
The “folding stability dG” value of the first is lower: 2.02 kcal/mol for the first, 3.25 kcal/mol for the second.

Going from K57Y to K57P, the “folding stability dG” value falls from 4.22 kcal/mol to 3.63 kcal/mol.

Compared with P51K, P51W is lower in “folding stability dG” value: 1.62 kcal/mol for the first, 1.33 kcal/mol for the second.

First: P51N
Second: P51I
The “folding stability dG” value of the first is higher: 2.28 kcal/mol for the first, 0.759 kcal/mol for the second.

Compared with P51Q, P10H is higher in “folding stability dG” value: 1.09 kcal/mol for the first, 3.93 kcal/mol for the second.

Compared with P10K, P10V is lower in “folding stability dG” value: 3.78 kcal/mol for the first, 2.27 kcal/mol for the second.

Going from P10T to V5Y, the “folding stability dG” value rises from 4.18 kcal/mol to 4.22 kcal/mol.

Compared with V5W, V5C is lower in “folding stability dG” value: 4.11 kcal/mol for the first, 3.86 kcal/mol for the second.

First: V5F
Second: K26F
The “folding stability dG” value of the first is lower: 3.21 kcal/mol for the first, 4.75 kcal/mol for the second.

Going from K26P to K26V, the “folding stability dG” value rises from 2.39 kcal/mol to 4.19 kcal/mol.

Going from K26W to K26S, the “folding stability dG” value falls from 4.72 kcal/mol to 2.3 kcal/mol.

Going from K26M to K26N, the “folding stability dG” value falls from 4.51 kcal/mol to 2.15 kcal/mol.

First: K26C
Second: P16T
The “folding stability dG” value of the first is higher: 4.34 kcal/mol for the first, 2.87 kcal/mol for the second.

First: P16I
Second: P16G
The “folding stability dG” value of the first is higher: 3 kcal/mol for the first, 2.75 kcal/mol for the second.

First: P16W
Second: P16Q
The “folding stability dG” value of the first is lower: 2.79 kcal/mol for the first, 3.08 kcal/mol for the second.

First: D3P
Second: D3V
The “folding stability dG” value of the first is lower: 3.09 kcal/mol for the first, 4.37 kcal/mol for the second.

Going from D3F to K28H, the “folding stability dG” value falls from 4.91 kcal/mol to 3.02 kcal/mol.

First: K28S
Second: K28F
The “folding stability dG” value of the first is lower: 2.77 kcal/mol for the first, 3.91 kcal/mol for the second.

Compared with K28M, A7G is lower in “folding stability dG” value: 4.6 kcal/mol for the first, 2.64 kcal/mol for the second.

Going from H15P to H15V, the “folding stability dG” value falls from 3.63 kcal/mol to 1.77 kcal/mol.

Going from H15N to H15I, the “folding stability dG” value falls from 3.65 kcal/mol to 1.63 kcal/mol.

Going from H15K to H15Q, the “folding stability dG” value falls from 3.48 kcal/mol to 3.03 kcal/mol.

Going from F49H to F49M, the “folding stability dG” value rises from 1.88 kcal/mol to 4.22 kcal/mol.

Compared with F49N, F49E is lower in “folding stability dG” value: 3.4 kcal/mol for the first, 0.945 kcal/mol for the second.

Going from F49D to F49C, the “folding stability dG” value rises from 1.19 kcal/mol to 3.83 kcal/mol.

Going from F49L to G34W, the “folding stability dG” value falls from 3.4 kcal/mol to 1.24 kcal/mol.

First: G34D
Second: G34P
The “folding stability dG” value of the first is higher: 1.96 kcal/mol for the first, 1.5 kcal/mol for the second.

Compared with G34V, G34M is higher in “folding stability dG” value: 1.41 kcal/mol for the first, 1.59 kcal/mol for the second.

Going from K22H to K22L, the “folding stability dG” value rises from 2.66 kcal/mol to 3.21 kcal/mol.

Going from K22P to G2K, the “folding stability dG” value rises from 0.747 kcal/mol to 2.9 kcal/mol.

Going from G2Y to G2F, the “folding stability dG” value falls from 3.95 kcal/mol to 3.9 kcal/mol.

First: G2A
Second: G24K
The “folding stability dG” value of the first is higher: 3.27 kcal/mol for the first, 0.476 kcal/mol for the second.

Compared with G24S, G24A is lower in “folding stability dG” value: 1.3 kcal/mol for the first, 1.25 kcal/mol for the second.

First: S52Y
Second: S52E
The “folding stability dG” value of the first is higher: 3.08 kcal/mol for the first, 1.64 kcal/mol for the second.

Compared with D18Y, D18H is higher in “folding stability dG” value: 4.04 kcal/mol for the first, 4.91 kcal/mol for the second.

First: D18K
Second: L43D
The “folding stability dG” value of the first is lower: 3.08 kcal/mol for the first, 3.14 kcal/mol for the second.

Compared with L43I, L43P is lower in “folding stability dG” value: 3.26 kcal/mol for the first, 0.475 kcal/mol for the second.

First: L43N
Second: S41W
The “folding stability dG” value of the first is higher: 2.4 kcal/mol for the first, 0.288 kcal/mol for the second.

Compared with S41V, S41N is higher in “folding stability dG” value: 1.06 kcal/mol for the first, 1.9 kcal/mol for the second.

Going from S41L to S41F, the “folding stability dG” value falls from 1.15 kcal/mol to -0.464 kcal/mol.

Compared with Y9C, K46A is lower in “folding stability dG” value: 4.44 kcal/mol for the first, 3.05 kcal/mol for the second.

First: K46L
Second: K46E
The “folding stability dG” value of the first is higher: 3.56 kcal/mol for the first, 2.94 kcal/mol for the second.

Going from K46M to K40Q, the “folding stability dG” value rises from 3.47 kcal/mol to 3.88 kcal/mol.

Going from K40I to K40W, the “folding stability dG” value falls from 3.96 kcal/mol to 3.24 kcal/mol.

First: K40T
Second: K40V
The “folding stability dG” value of the first is lower: 2.76 kcal/mol for the first, 4.24 kcal/mol for the second.

Compared with A39Y, A39G is higher in “folding stability dG” value: -0.228 kcal/mol for the first, 1.44 kcal/mol for the second.

First: A39L
Second: G48F
The “folding stability dG” value of the first is higher: 1.97 kcal/mol for the first, 0.034 kcal/mol for the second.

Going from G48A to V6W, the “folding stability dG” value rises from -0.512 kcal/mol to 2.05 kcal/mol.

First: V6K
Second: V6Y
The “folding stability dG” value of the first is lower: 1.52 kcal/mol for the first, 3.49 kcal/mol for the second.

Going from V6H to L42S, the “folding stability dG” value falls from 1.5 kcal/mol to 0.699 kcal/mol.

First: L42E
Second: L19A
The “folding stability dG” value of the first is higher: 1.82 kcal/mol for the first, -0.055 kcal/mol for the second.

First: L19R
Second: L19P
The “folding stability dG” value of the first is higher: -0.083 kcal/mol for the first, -0.243 kcal/mol for the second.

Going from L19C to L19M, the “folding stability dG” value rises from 0.728 kcal/mol to 2.12 kcal/mol.

Going from L19V to L19W, the “folding stability dG” value falls from 0.435 kcal/mol to 0.23 kcal/mol.

First: G13C
Second: G13K
The “folding stability dG” value of the first is lower: 1.96 kcal/mol for the first, 2.6 kcal/mol for the second.

First: G13D
Second: G13R
The “folding stability dG” value of the first is lower: 0.145 kcal/mol for the first, 2.26 kcal/mol for the second.

Compared with G13T, V55Y is lower in “folding stability dG” value: 1.74 kcal/mol for the first, 0.703 kcal/mol for the second.

Going from V55I to V55G, the “folding stability dG” value falls from 2.12 kcal/mol to 0.112 kcal/mol.

First: V55W
Second: W37D
The “folding stability dG” value of the first is higher: 0.199 kcal/mol for the first, 0.168 kcal/mol for the second.

In the case of W37M, the “folding stability dG” value is reported as 4.7 kcal/mol.
